Measured values: patent publication US7153676B1, “Transacylases of the paclitaxel biosynthetic pathway” (priority 1999, dated 2006)
Where “and” joins values, the source holds several entries; their conditions need not be identical. Equal values may be shown once.

B1: TAX6: full-length clone, SEQ ID NO: 44/45; 10-deacetylbaccatin III-10-O-acetyl transferase (protein, listed as Taxus cuspidata)
chain: MAGSTEFVVRSLERVMVAPSQPSPKAFLQLSTLDNLPGVRENIFNTLLVYNASDRVSVDPAKVIRQALSKVLVYYSPFAGRLRKKENGDLEVECTGEGALFVEAMADTDLSVLGDLDDYSPSLEQLLFCLPPDTDIEDIHPLVVQVTRFTCGGFVVGVSFCHGICDGLGAGQFLIAMGEMARGEIKPSSEPIWKRELLKPEDPLYRFQYYHFQLICPPSTFGKIVQGSLVITSETINCIKQCLREESKEFCSAFEVVSALAWIARTRALQIPHSENVKLIFAMDMRKLFNPPLSKGYYGNFVGTVCAMDNVKDLLSGSLLRVVRIIKKAKVSLNEHFTSTIVTPRSGSDESINYENIVGFGDRRRLGFDEVDFGWGHADNVSLVQHGLKDVSVVQSYFLFIRPPKNNPDGIKILSFMPPSIVKSFKFEMETMTNKYVTKP
B2: TAX1: full-length clone, SEQ ID NO: 27/28; encodes Taxus taxadienol acetyl transacylase (protein)
chain: MEKTDLHVNLIEKVMVGPSPPLPKTTLQLSSIDNLPGVRGSIFNALLIYNASPSPTMISADPAKPIREALAKILVYYPPFAGRLRETENGDLEVECTGEGAMFLEAMADNELSVLGDFDDSNPSFQQLLFSLPLDTNFKDLSLLVVQVTRFTCGGFVVGVSFHHGVCDGRGAAQFLKGLAEMARGEVKLSLEPIWNRELVKLDDPKYLQFFHFEFLRAPSIVEKIVQTYFIIDFETINYIKQSVMEECKEFCSSFEVASAMTWIARTRAFQIPESEYVKILFGMDMRNSFNPPLPSGYYGNSIGTACAVDNVQDLLSGSLLRAIMIIKKSKVSLNDNFKSRAVVKPSELDVNMNHENVVAFADWSRLGFDEVDFGWGNAVSVSPVQQQSALAMQNYFLFLKPSKNKPDGIKILMFLPLSKMKSFKIEMEAMMKKYVAKV

Assays:
[1] = molecular target: T1, 10-deacetylbaccatin III-10-O-acetyl transferase (TAX6) (Taxus cuspidata, UniProt Q9M6E2); format: biochemical
T1 construct: to amplify the putative full-length acetyl transferase gene and incorporate NdeI and XbaI restriction sites; made in house; host or cells: E. coli JM109 (pCWori+)
T1 sequence (Q9M6E2 1-440): B1 chain
Experimental: For the enzyme preparation, E. coli cells transformed with the pCWori+ vector harboring the putative DBAT gene were grown overnight at 37° C. in 5 mL Luria-Bertani medium supplemented with ampicillin, and 1 mL of this inoculum was added to and grown in 100 mL Terrific Broth culture medium (6 g bacto-tryptone, Difco Laboratories, Spark, Md., 12 g yeast extract, EM Science, Cherryhill, N.J., and 2 mL gycerol in 500 mL water) supplemented with 1 mM IPTG, 1 mM thiamine HCl and 50 μg ampicillin/mL. After 24 hours, the bacteria were harvested by centrifugation, resuspended in 20 mL of assay buffer (25 mM Mopso, pH 7.4) and then disrupted by sonication at 0–4° C. The resulting homogenate was centrifuged at 15,000 g to remove debris, and a 1 mL aliquot of the supernatant was incubated with 10-deacetylbaccatin III (400 μM) and [2-^3H]acetyl coenzyme A (0.45μCi, 400 μM) for 1 hour at 31° C. The reaction mixture was extracted with ether and the solvent concentrated in vacuo. The crude product (pooled from five such assays) was purified by silica gel thin-layer chromatography (TLC; 70:30 ethyl acetate:hexane).
The activity of TAX6 (SEQ ID NO: 45) was assayed under standard conditions described in Walker et al., Arch. Biochem. Biophys.

[2] = molecular target: T2, taxadienol acetyl transacylase (TAX1) (Taxus cuspidata, UniProt Q9M6F0); test: recombinant TAX1 expressed in E. coli JM109, taxadienol acetyl transacylase assay; format: biochemical; conditions: cell-free extract, radiochemical analysis
T2 construct: Full-length insert fragments of the relevant plasmids are excised and subcloned in-frame into the expression vector pCWori+; made in house; host or cells: E. coli JM109 (pCWori+)
T2 sequence (Q9M6F0 1-439): B2 chain
Experimental: To determine the identity of the putative taxadienol acetyl transacylase, TAX1 (SEQ ID NO: 28), TAX2 (SEQ ID NO: 26), and TAX6 (SEQ ID NO: 45) were subcloned in-frame into the expression vector pCWori+ (Barnes, Methods Enzymol. 272:3–14, 1996) and expressed in E. coli JM109 cells. The transformed bacteria were cultured and induced with isopropyl β-D-thiogalactoside (IPTG), and cell-free extracts were prepared and evaluated for taxadienol acetyl transacylase activity using the previously developed assay procedures (Walker et al., Arch. Biochem. Biophys. 364:273–279, 1999). Clone TAX1 (corresponding directly to Probe 1) expressed high levels of taxadienol acetyl transacylase activity (20% conversion of substrate to product), as determined by radiochemical analysis; the product of this recombinant enzyme was confirmed as taxadienyl-5α-yl acetate by gas chromatography-mass spectrometry (GC-MS) (FIGS. 5A–5G). […] Neither of the recombinant proteins expressed from TAX1 (SEQ ID NO: 28) or TAX2 (SEQ ID NO: 26) was capable of acetylating the advanced paclitaxel precursor 10-deacetyl baccatin III to baccatin III. […]

Row | Molecule | optimum pH [1] | pH at half-maximal velocities [1] | taxadienol acetyl transacylase activity (conversion of substrate to product) [2]
1 | B1 | 7.5 | 6.4 and 7.8 | 
2 | B2 |  |  | 20%
